Data reported in the supplement of paper PMC10567573.

B1: CDC25B (parent)
chain: FVDILESDLKDDDAVPPGMESLIS
B2: PKD2L1 (parent)
chain: YSGGGYYLDLPGSRQGSAEALRAL

Variants of: B1
Assay: protein stability index of a GFP-peptide fusion (GPS, HEK-293T) (PSI 1-6); higher = more stable
Details: c terminus: a fixed tail appended
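Further: lentivirally expressed fusions sorted by FACS into six bins by GFP to DsRed ratio, PSI derived from sequencing read proportions per bin multiplied by bin number.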

Protein stability index of substitutions, site by site:
S24: P 2.57; Q 3.9; R 2.96; T 3.02; V 2.41; W 1.72; Y 2.47

Variants of: B2
Assay: as above
Details: c terminus: a fixed tail appended

Protein stability index of substitutions, site by site:
Y1: A 3.15; C 2.29; D 4.08; E 3.75; F 2.68; G 3.66; H 3.5; I 2.72; K 3.16; L 3.1; M 2.99; N 3.58; P 3.49; Q 3.75; R 3.13; S 3.48; T 3.58; V 2.98; W 2.94
S2: D 2.45; E 3; F 1.93; G 1.45; H 2.88; I 2.34; K 2.22; L 1.4; M 1.92; N 1.84; P 3.27; Q 2.3; R 2.51; T 2.59; V 3.97; W 2.13; Y 2.19
G3: A 1.58; C 2.41; D 2.5; E 2.06; F 1.45; H 2.02; I 2.27; K 2.37; L 2.87; M 2.12; N 1.52; P 2.31; Q 1.52; R 2.47; S 1.73; T 1.93; V 2.21; W 2.09; Y 1.7
G4: A 1.56; C 1.95; D 2.86; E 1.8; F 2.49; H 2.45; I 1.78; K 2.37; L 2.15; M 2.35; N 1.67; P 2.03; Q 2.23; R 2.48; S 2.08; T 2.53; V 2.22; W 2.44; Y 1.65
G5: A 1.14; C 1.25; D 2.28; E 2.06; F 2.17; H 2.28; I 1.33; K 2.65; L 1.6; M 2.68; N 1.76; P 2.41; Q 1.39; R 2.67; S 1.83; T 1.96; V 2.1; W 3.35; Y 1.71
Y6: A 2.27; C 2.75; D 2.57; E 3.37; F 2.25; G 1.84; H 2.16; I 1.79; K 2.66; L 1.59; M 2.16; N 2.83; P 2.42; Q 2.83; R 2.64; S 3.28; T 2.75; V 2.24; W 5.5
Y7: A 2.17; C 1.93; D 3.25; E 3.37; F 1.56; G 2.24; H 2.26; I 1.39; K 2.75; L 1.66; M 1.61; N 2.59; P 2.96; Q 2.4; R 2.06; S 3.21; T 2.71; V 2.21; W 1.91
L8: A 2.12; C 1.69; D 1.99; E 2.9; F 2.66; G 1.67; H 4.24; I 2.77; K 1.42; M 3.21; N 1.73; P 1.99; Q 2.26; R 2.08; S 1.37; T 3.55; V 2.45; W 2.72; Y 2.03
D9: A 4.81; E 2.01; F 3.62; G 3.74; H 1.95; I 3.81; K 2.59; L 4.93; M 3.33; N 2.46
